According to the supplement of paper PMC10567573:

B1: CDC14A (parent)
chain: GPHPKSKIENGYPLHAPEAYFPYF

Variants of: B1
Assay: protein stability index of a GFP-peptide fusion (GPS, HEK-293T) (PSI 1-6); higher = more stable
Settings: c terminus: a fixed tail appended
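Further: lentivirally expressed fusions sorted by FACS into six bins by GFP to DsRed ratio, PSI derived from sequencing read proportions per bin multiplied by bin number.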

Variant	protein stability index
GPHPKSKEENGYPLHAPEAYFPYF [I8E]	3.29
GPGPKSKIENGYPLHAPEAYFPYF [H3G]	2.54
GPKPKSKIENGYPLHAPEAYFPYF [H3K]	2.46
GPYPKSKIENGYPLHAPEAYFPYF [H3Y]	1.9
GPSPKSKIENGYPLHAPEAYFPYF [H3S]	2.55
GPLPKSKIENGYPLHAPEAYFPYF [H3L]	2.19
GPTPKSKIENGYPLHAPEAYFPYF [H3T]	1.91
GPCPKSKIENGYPLHAPEAYFPYF [H3C]	2.01
GPIPKSKIENGYPLHAPEAYFPYF [H3I]	2.48
GPQPKSKIENGYPLHAPEAYFPYF [H3Q]	2.7
GPEPKSKIENGYPLHAPEAYFPYF [H3E]	2.46
GPNPKSKIENGYPLHAPEAYFPYF [H3N]	2.54
GPAPKSKIENGYPLHAPEAYFPYF [H3A]	2.4
GPDPKSKIENGYPLHAPEAYFPYF [H3D]	2.01
GPMPKSKIENGYPLHAPEAYFPYF [H3M]	2.19
GPVPKSKIENGYPLHAPEAYFPYF [H3V]	2.41
GPRPKSKIENGYPLHAPEAYFPYF [H3R]	2.19
GPFPKSKIENGYPLHAPEAYFPYF [H3F]	2.02
GPWPKSKIENGYPLHAPEAYFPYF [H3W]	1.66
GPHPKSEIENGYPLHAPEAYFPYF [K7E]	2.27
GPHPKSMIENGYPLHAPEAYFPYF [K7M]	1.91
GPHPKSFIENGYPLHAPEAYFPYF [K7F]	1.99
GPHPKSLIENGYPLHAPEAYFPYF [K7L]	2.06
GPHPKSAIENGYPLHAPEAYFPYF [K7A]	2.33

Variant	protein stability index
GPHPKSWIENGYPLHAPEAYFPYF [K7W]	1.57
GPHPKSCIENGYPLHAPEAYFPYF [K7C]	2.23
GPHPKSSIENGYPLHAPEAYFPYF [K7S]	2.31
GPHPKSNIENGYPLHAPEAYFPYF [K7N]	2.57
GPHPKSYIENGYPLHAPEAYFPYF [K7Y]	1.84
GPHPKSDIENGYPLHAPEAYFPYF [K7D]	2.13
GPHPKSVIENGYPLHAPEAYFPYF [K7V]	2.59
GPHPKSQIENGYPLHAPEAYFPYF [K7Q]	1.96
GPHPKSRIENGYPLHAPEAYFPYF [K7R]	2.43
GPHPKSGIENGYPLHAPEAYFPYF [K7G]	2.84
GPHPKSPIENGYPLHAPEAYFPYF [K7P]	2.72
GPHPKSTIENGYPLHAPEAYFPYF [K7T]	2.43
GPHPKSHIENGYPLHAPEAYFPYF [K7H]	2.22
GPHPKSIIENGYPLHAPEAYFPYF [K7I]	1.98
VPHPKSKIENGYPLHAPEAYFPYF [G1V]	1.89
FPHPKSKIENGYPLHAPEAYFPYF [G1F]	2.01
SPHPKSKIENGYPLHAPEAYFPYF [G1S]	1.99
YPHPKSKIENGYPLHAPEAYFPYF [G1Y]	1.51
KPHPKSKIENGYPLHAPEAYFPYF [G1K]	1.57
EPHPKSKIENGYPLHAPEAYFPYF [G1E]	2.44
LPHPKSKIENGYPLHAPEAYFPYF [G1L]	2.05
HPHPKSKIENGYPLHAPEAYFPYF [G1H]	2.08
DPHPKSKIENGYPLHAPEAYFPYF [G1D]	2.51
APHPKSKIENGYPLHAPEAYFPYF [G1A]	1.82

Variant	protein stability index
MPHPKSKIENGYPLHAPEAYFPYF [G1M]	2.51
WPHPKSKIENGYPLHAPEAYFPYF [G1W]	1.73
TPHPKSKIENGYPLHAPEAYFPYF [G1T]	2.7
CPHPKSKIENGYPLHAPEAYFPYF [G1C]	2.1
QPHPKSKIENGYPLHAPEAYFPYF [G1Q]	2.03
RPHPKSKIENGYPLHAPEAYFPYF [G1R]	1.88
IPHPKSKIENGYPLHAPEAYFPYF [G1I]	1.85
NPHPKSKIENGYPLHAPEAYFPYF [G1N]	2.56
GSHPKSKIENGYPLHAPEAYFPYF [P2S]	2.33
GYHPKSKIENGYPLHAPEAYFPYF [P2Y]	1.85
GQHPKSKIENGYPLHAPEAYFPYF [P2Q]	2.14
GGHPKSKIENGYPLHAPEAYFPYF [P2G]	1.74
GTHPKSKIENGYPLHAPEAYFPYF [P2T]	2.17
GIHPKSKIENGYPLHAPEAYFPYF [P2I]	2.28
GAHPKSKIENGYPLHAPEAYFPYF [P2A]	2.35
GMHPKSKIENGYPLHAPEAYFPYF [P2M]	2.13
GVHPKSKIENGYPLHAPEAYFPYF [P2V]	2.41
GEHPKSKIENGYPLHAPEAYFPYF [P2E]	2.09
GDHPKSKIENGYPLHAPEAYFPYF [P2D]	2.29
GHHPKSKIENGYPLHAPEAYFPYF [P2H]	2.46
GLHPKSKIENGYPLHAPEAYFPYF [P2L]	2.29
GKHPKSKIENGYPLHAPEAYFPYF [P2K]	1.94
GWHPKSKIENGYPLHAPEAYFPYF [P2W]	2.45
GRHPKSKIENGYPLHAPEAYFPYF [P2R]	2.34

Variant	protein stability index
GFHPKSKIENGYPLHAPEAYFPYF [P2F]	2.8
GNHPKSKIENGYPLHAPEAYFPYF [P2N]	2.1
GCHPKSKIENGYPLHAPEAYFPYF [P2C]	1.67
GPHPKAKIENGYPLHAPEAYFPYF [S6A]	2.36
GPHPKFKIENGYPLHAPEAYFPYF [S6F]	2.11
GPHPKIKIENGYPLHAPEAYFPYF [S6I]	2.01
GPHPKPKIENGYPLHAPEAYFPYF [S6P]	2
GPHPKMKIENGYPLHAPEAYFPYF [S6M]	1.6
GPHPKGKIENGYPLHAPEAYFPYF [S6G]	2.14
GPHPKRKIENGYPLHAPEAYFPYF [S6R]	2.2
GPHPKYKIENGYPLHAPEAYFPYF [S6Y]	1.82
GPHPKQKIENGYPLHAPEAYFPYF [S6Q]	2.22
GPHPKEKIENGYPLHAPEAYFPYF [S6E]	2.3
GPHPKWKIENGYPLHAPEAYFPYF [S6W]	1.88
GPHPKKKIENGYPLHAPEAYFPYF [S6K]	2.58
GPHPKLKIENGYPLHAPEAYFPYF [S6L]	2.22
GPHPKTKIENGYPLHAPEAYFPYF [S6T]	2.15
GPHPKCKIENGYPLHAPEAYFPYF [S6C]	1.87
GPHPKVKIENGYPLHAPEAYFPYF [S6V]	2.16
GPHPKNKIENGYPLHAPEAYFPYF [S6N]	2.21
GPHPKHKIENGYPLHAPEAYFPYF [S6H]	2.63
GPHPKDKIENGYPLHAPEAYFPYF [S6D]	2.59
